Laboratory results published in patent EP4755912A1 (Shandong Boan Biotechnology Co., Ltd., dated 2026).
Like-named read-outs stand apart in the source and are kept apart here.

What was measured:
[1] = target: T1, Human CD228 protein (human, UniProt P08582 20-708, limits assumed); test: ELISA, plate coated with CD228 protein at 0.2 µg/mL
T1 construct: A His tag is named only for the panning and Western blot material (CD228-His); also called CD228 antigenic protein; C28
T1 sequence: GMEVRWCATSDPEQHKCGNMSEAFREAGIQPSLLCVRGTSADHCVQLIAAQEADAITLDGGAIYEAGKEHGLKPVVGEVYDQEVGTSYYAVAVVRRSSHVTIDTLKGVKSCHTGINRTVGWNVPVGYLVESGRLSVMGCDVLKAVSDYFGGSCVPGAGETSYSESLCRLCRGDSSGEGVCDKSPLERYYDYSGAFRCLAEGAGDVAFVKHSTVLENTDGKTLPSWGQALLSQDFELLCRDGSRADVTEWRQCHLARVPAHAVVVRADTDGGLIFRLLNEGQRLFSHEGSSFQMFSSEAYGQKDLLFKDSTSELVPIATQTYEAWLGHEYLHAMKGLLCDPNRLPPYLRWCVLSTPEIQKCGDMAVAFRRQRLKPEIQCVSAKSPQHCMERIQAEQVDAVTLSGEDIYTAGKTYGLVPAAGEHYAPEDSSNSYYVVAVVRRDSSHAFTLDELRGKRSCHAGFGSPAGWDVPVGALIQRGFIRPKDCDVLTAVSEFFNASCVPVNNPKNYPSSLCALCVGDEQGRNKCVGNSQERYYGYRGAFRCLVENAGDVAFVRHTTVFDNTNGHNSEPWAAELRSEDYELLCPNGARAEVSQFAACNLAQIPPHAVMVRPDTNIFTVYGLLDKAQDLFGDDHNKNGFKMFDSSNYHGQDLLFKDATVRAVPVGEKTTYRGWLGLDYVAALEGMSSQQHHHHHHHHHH

[2] = target: T1, Human CD228 protein; test: BLI, antibody on ProA sensor, CD228 protein in solution
[3] = target: T1, Human CD228 protein; test: as above; remark: listed apart in the source

B1: R546 (antibody, V domains shown)
VH: QSLEESGGRLVKPDETLTLTCTVSGFSLSSYDMSWVRQAPGKGLQWIGAATAGGNTYHASWAKGRFTISKTSTTVDLKITSPTTEDTATYFCTRGLNIWGPGTLVTVSS
VL: DPMLTQTASPVSAAVGSTVTINCQASQSVYNNNNLNWYQQKPGQPPKLLIYAASTLASGVPSRFKGSGSGTQFTLTISDVQCDDAATYYCLGAYDCSSADCGAFGGGTELEILG
notes: Rabbit-derived clone from a phage library, made as a full-length antibody with rabbit constant regions in HEK293 cells; also called CD228-R546; self-made antibody R546
In the case of B1, the EC50 [1] is reported as 1.52 ng/mL, the Kd [2] is reported as 1.33 nM and the Response [2] is reported as 0.128. For the same binder, the Kd [3] was 1.33 nM.

B2: R526 (antibody, V domains shown)
VH: QEQLEESGGRLVTPGTPLTLTCTVSGFSLSTYAINWIRQAPGKGLEWIGIIGGNGATYYTNWAKGRFTISKTSTTVDLKITSPTIEDTATYFCARGTNFWGPGTLVTVSS
VL: DPVLTQTASPVSAAVGGTITINCQASQSVYNNNQLSWFQQNPGQPPKRLIHSTSTLAPGVSSRFKGSGSGTQFTLTISDVQCDDAATYYCLGSYDCVSADCNAFGGGTEVVVKG
notes: Rabbit-derived clone, full-length antibody with rabbit constant regions
B2 was tested, and the EC50 [1] was 5.71 ng/mL, the Kd [2] was less than 0.001 nM and the Response [2] was 0.0251.
